Measured values as given in patent US20060241289A1.
Like-named read-outs stand apart in the source and are kept apart here. Each block holds one substance with its values, some of them ahead of it.

Legend:
[1] = target: hTSH receptor expressed on CHO cells (human) (UniProt P16473); experiment: cell-based or functional assay
[2] = target: TSH receptor coated onto plastic tubes (UniProt P16473); experiment: TSHR coated tubes; 90/672 at 1 U/L; competitor 125I-TSH
[3] = target: TSH receptor coated onto plastic tubes (UniProt P16473); experiment: TSHR coated tubes; 90/672 at 2 U/L; competitor 125I-TSH
[4] = target: TSH receptor coated onto plastic tubes (UniProt P16473); experiment: TSHR coated tubes; 90/672 at 8 U/L; competitor 125I-TSH
[5] = target: TSH receptor coated onto plastic tubes (UniProt P16473); experiment: TSHR coated tubes; 90/672 at 1 U/L; competitor 125I-9D33
[6] = target: TSH receptor coated onto plastic tubes (UniProt P16473); experiment: TSHR coated tubes; 90/672 at 2 U/L; competitor 125I-9D33
[7] = target: TSH receptor coated onto plastic tubes (UniProt P16473); experiment: TSHR coated tubes; 90/672 at 40 U/L; competitor 125I-TSH
[8] = target: TSH receptor coated onto plastic tubes (UniProt P16473); experiment: TSHR coated tubes; 90/672 at 8 U/L; competitor 125I-9D33
[9] = target: TSH receptor coated onto plastic tubes (UniProt P16473); experiment: TSHR coated tubes; 90/672 at 40 U/L; competitor 125I-9D33
[10] = target: TSH receptor coated onto plastic tubes or ELISA plate wells (RSR Ltd) / detergent solubilised TSH receptor; experiment: 125I-TSH on TSHR coated tubes, sample diluted in serum
[11] = target: TSH receptor coated onto plastic tubes or ELISA plate wells (RSR Ltd) / detergent solubilised TSH receptor; experiment: Scatchard analysis, 125I-Fab on TSH receptor coated tubes
[12] = target: TSH receptor coated onto plastic tubes or ELISA plate wells (RSR Ltd) / detergent solubilised TSH receptor; experiment: 125I-TSH on TSHR coated tubes, sample diluted in assay buffer
[13] = target: TSH receptor coated onto plastic tubes or ELISA plate wells (RSR Ltd) / detergent solubilised TSH receptor; experiment: inhibition of 125I-TSH binding, mean of serum and assay buffer
[14] = target: TSH receptor coated onto plastic tubes or ELISA plate wells (RSR Ltd) / detergent solubilised TSH receptor; experiment: 125I-TSH on TSHR coated tubes, buffer only
[15] = target: TSH receptor coated onto plastic tubes or ELISA plate wells (RSR Ltd) / detergent solubilised TSH receptor; experiment: 125I-TSH on TSHR coated tubes, buffer only; remark: listed apart in the source
[16] = target: TSH receptor coated onto plastic tubes or ELISA plate wells (RSR Ltd) / detergent solubilised TSH receptor; experiment: 125I-TSH on TSHR coated tubes, assay buffer only
[17] = target: TSH receptor coated onto plastic tubes (UniProt P16473); experiment: 125I-TSH binding to TSHR coated tubes, assay buffer only
[18] = target: TSH receptor coated onto plastic tubes (UniProt P16473); experiment: as above; remark: listed apart in the source
[19] = target: TSH receptor coated onto plastic tubes or ELISA plate wells (RSR Ltd) / detergent solubilised TSH receptor; experiment: 125I-TSH on TSHR coated tubes, healthy blood donor serum pool only
[20] = target: TSH receptor coated onto plastic tubes or ELISA plate wells (RSR Ltd) / detergent solubilised TSH receptor; experiment: as above; remark: listed apart in the source

- stimulation of cyclic AMP production in CHO cells transfected with the TSH receptor [1]: 10 ng/mL
Substance: human TSH (from UniProt P01215 25-116; P01222 21-132) (ligand)

- Mean cyclic AMP per well; NIBSC 90/672 0.1 units/L (pmols per well) [1]: 1.09
- Mean cyclic AMP per well; NIBSC 90/672 0.3 units/L (pmols per well) [1]: 1.49
- Mean cyclic AMP per well; NIBSC 90/672 1.0 units/L (pmols per well) [1]: 3.52
- Mean cyclic AMP per well; NIBSC 90/672 3.0 units/L (pmols per well) [1]: 8.16
Substance: NIBSC 90/672

- inhibition of 125I-TSH binding (%) [2]: 12%
- inhibition of 125I-TSH binding (%) [3]: 23%
- inhibition of 125I-TSH binding (%) [4]: 68%
- 125I-9D33 bound (% total counts added) [5]: 13%
- inhibition of 125I-9D33 binding (%) [5]: 10%
- 125I-9D33 bound (% total counts added) [6]: 11%
- inhibition of 125I-9D33 binding (%) [6]: 28%
- inhibition of 125I-TSH binding (%) [7]: 92%
- 125I-9D33 bound (% total counts added) [8]: 7.1%
- inhibition of 125I-9D33 binding (%) [8]: 52%
- 125I-9D33 bound (% total counts added) [9]: 4.1%
- inhibition of 125I-9D33 binding (%) [9]: 72%
Substance: NIBSC 90/672 (International Standard for thyroid stimulating antibody)

- % inhibition [10]: 36%
- mean units/mg (NIBSC 90/672) [10]: 288 units/mg
- Ka [11]: 4.5e+10 M⁻¹
- mean units/mg (NIBSC 90/672) [12]: 309 units/mg
- units/mg (NIBSC 90/672) ([12]; Fab at 3 ng/mL): 265 units/mg
- units/mg (NIBSC 90/672) ([12]; Fab at 10 ng/mL): 291 units/mg
- units/mg (NIBSC 90/672) ([12]; Fab at 30 ng/mL): 372 units/mg
- Units/mg (NIBSC 90/672), inhibition of TSH binding assay [13]: 300 Units/mg
- Units/nmole (NIBSC 90/672), inhibition of TSH binding assay [13]: 15 Units/nmole
Substance: hMAb TSHR1 Fab

- % of total cpm bound [14]: 14.7%
- % of total cpm bound [15]: 16.3%
- % binding [16]: 12.1%
- % inhibition [16]: 0%
- % 125I-TSH binding [17]: 11.5%
- % 125I-TSH binding [18]: 11.1%
- % of total cpm bound [19]: 14.9%
- % of total cpm bound [20]: 14.7%
Substance: 125I-labelled TSH (ligand)
